Data: patent publication US20230235048A1

Biological target: human sortilin on the cell surface (recombinant huSortilin on HEK 293 cells; endogenous on U251MG cells) (human), Q99523
Assay: flow cytometry, hPGRN-biotin on hSortilin HEK cells clone A (note under the bar chart)
Settings: remark: other sources report otherwise

Chain of human sortilin on the cell surface (recombinant huSortilin on HEK 293 cells; endogenous on U251MG cells) (human), Q99523 (Q99523 78-831): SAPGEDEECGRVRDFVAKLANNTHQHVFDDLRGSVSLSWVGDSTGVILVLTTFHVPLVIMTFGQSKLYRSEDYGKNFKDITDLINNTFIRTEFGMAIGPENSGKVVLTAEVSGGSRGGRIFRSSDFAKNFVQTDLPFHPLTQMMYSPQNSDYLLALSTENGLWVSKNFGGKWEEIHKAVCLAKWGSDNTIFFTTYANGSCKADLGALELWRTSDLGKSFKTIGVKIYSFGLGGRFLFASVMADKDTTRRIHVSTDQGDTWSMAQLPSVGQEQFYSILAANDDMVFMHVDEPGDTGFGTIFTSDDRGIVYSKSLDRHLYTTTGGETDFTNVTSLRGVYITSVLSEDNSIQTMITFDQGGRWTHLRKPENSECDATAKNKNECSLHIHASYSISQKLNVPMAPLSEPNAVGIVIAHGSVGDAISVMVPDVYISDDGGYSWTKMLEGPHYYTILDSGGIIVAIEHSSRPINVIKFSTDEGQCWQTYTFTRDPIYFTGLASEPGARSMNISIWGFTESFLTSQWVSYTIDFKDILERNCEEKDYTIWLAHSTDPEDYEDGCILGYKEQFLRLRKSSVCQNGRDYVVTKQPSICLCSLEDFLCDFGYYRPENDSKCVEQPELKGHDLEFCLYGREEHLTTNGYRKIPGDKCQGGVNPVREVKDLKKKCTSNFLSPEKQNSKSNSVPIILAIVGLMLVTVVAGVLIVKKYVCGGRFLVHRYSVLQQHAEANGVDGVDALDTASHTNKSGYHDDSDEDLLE

B1: human progranulin, biotinylated (huPGRN-Biotin), P28799 18-593 (ligand, UniProt P28799 18-593, looked up)
chain: TRCPDGQFCPVACCLDPGGASYSCCRPLLDKWPTTLSRHLGGPCQVDAHCSAGHSCIFTVSGTSSCCPFPEAVACGDGHHCCPRGFHCSADGRSCFQRSGNNSVGAIQCPDSQFECPDFSTCCVMVDGSWGCCPMPQASCCEDRVHCCPHGAFCDLVHTRCITPTGTHPLAKKLPAQRTNRAVALSSSVMCPDARSRCPDGSTCCELPSGKYGCCPMPNATCCSDHLHCCPQDTVCDLIQSKCLSKENATTDLLTKLPAHTVGDVKCDMEVSCPDGYTCCRLQSGAWGCCPFTQAVCCEDHIHCCPAGFTCDTQKGTCEQGPHQVPWMEKAPAHLSLPDPQALKRDVPCDNVSSCPSSDTCCQLTSGEWGCCPIPEAVCCSDHQHCCPQGYTCVAEGQCQRGSEIVAGLEKMPARRASLSHPRDIGCDQHTSCPVGQTCCPSLGGSWACCQLPHAVCCEDRQHCCPAGYTCNVKARSCEKEVVSAQPATFLARSPHVGVKDVECGEGHFCHDNQTCCRDNRQGWACCPYRQGVCCADRRHCCPAGFRCAARGTKCLRREAPRWDAPLRDPALRQLL
modifications: here or on the partner: biotinylated at a ratio of 5:1 using EZ-Link NHS-PEG4-Biotin
ED50: 30 nM
